Laboratory results reported in patent CN116789813A.

Legend:
[1] = biological target: 野生型金黄色葡萄球菌α-溶血素(wtHla) (Staphylococcus aureus (strain MRSA 252)); assay: cell-based or functional assay
[2] = biological target: 野生型金黄色葡萄球菌α-溶血素(wtHla) (Staphylococcus aureus (strain MRSA 252)); assay: ELISA, wtHla coated at 2μg/mL, anti-human IgG Fab-HRP detection

B1: 全人源Hla单克隆抗体Hla-38 (antibody, V domains shown)
VH: QVQLLESGGGVVQPGRSLRLSCIVSGFDLNSFAMHWVRQPPGKGLEWVAVIWHDGSERFYAASVKGRFTISRDTSRNTLFLQMNSLRVEDTAVYYCAKSGDYYENSGYFGSWGQGALVTVSS
VL: ELVLTQSPATLSVSPGERATLSCRASQSVGNDLAWYQQKPGQAPRLLIYGASTRATGIPARFSGSGFGTEFTLTISSLQSEDFAVYYCQQYNNWWTFGQGTKVDIK
- 保护率 (mice injected i.p. with 15μg wtHla pre-incubated with 2.5μg antibody) [1]: < 30%
- 保护率 (mice injected i.p. with 15μg wtHla pre-incubated with 5μg antibody) [1]: < 30%
- 保护率 (mice injected i.p. with 15μg wtHla pre-incubated with 10μg antibody) [1]: 50%
- 小鼠生存率 (mice injected i.p. with 15μg wtHla pre-incubated with 20μg antibody) [1]: > 80%
- EC50 [2]: 0.33 µg/mL
